The values that follow come from publication doi:10.1101/259481 (bioRxiv, 2018).

For orientation: Kd means the concentration at which binding is half-saturated.

Like-named read-outs stand apart in the source and are kept apart here.

Sequences and labels used below:
T1: recombinant human syndecan-1 (human, UniProt P18827 23-254)
T1 sequence (looked up): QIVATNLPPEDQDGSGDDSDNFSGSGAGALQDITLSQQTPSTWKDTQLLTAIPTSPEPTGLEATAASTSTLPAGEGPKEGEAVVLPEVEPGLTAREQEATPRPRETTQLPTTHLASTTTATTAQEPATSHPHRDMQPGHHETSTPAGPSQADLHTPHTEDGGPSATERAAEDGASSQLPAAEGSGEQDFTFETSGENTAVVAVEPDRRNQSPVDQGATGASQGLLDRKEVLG

T2: recombinant human syndecan-4 (human, UniProt P31431 19-145)
T2 sequence (looked up): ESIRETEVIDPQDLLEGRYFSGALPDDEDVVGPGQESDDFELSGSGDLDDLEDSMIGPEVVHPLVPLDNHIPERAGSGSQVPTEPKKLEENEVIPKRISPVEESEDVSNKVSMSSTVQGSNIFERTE

T3: recombinant laminin α3_(2928-3150) protein (human, UniProt Q16787 2928-3150)
T3 sequence (looked up): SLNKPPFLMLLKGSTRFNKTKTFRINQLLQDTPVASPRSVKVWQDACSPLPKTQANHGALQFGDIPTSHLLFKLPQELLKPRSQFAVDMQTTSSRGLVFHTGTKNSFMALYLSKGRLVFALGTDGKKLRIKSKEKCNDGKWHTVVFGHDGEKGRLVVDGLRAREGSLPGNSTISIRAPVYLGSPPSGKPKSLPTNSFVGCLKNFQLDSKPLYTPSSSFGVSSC

B1: placental growth factor (PlGF)-2 (ligand, human, UniProt P49763-3 19-170, looked up)
chain: LPAVPPQQWALSAGNGSSEVEVVPFQEVWGRSYCRALERLVDVVSEYPSEVEHMFSPSCVSLLRCTGCCGDENLHCVPVETANVTMQLLKIRSGDRPSYVELTFSQHVRCECRPLREKMKPERRRPKGRGKRRREKQRPTDCHLCGDAVPRR
B2: platelet-derived growth factor (PDGF)-BB (ligand, human, UniProt P01127 82-190, looked up)
chain: SLGSLTIAEPAMIAECKTRTEVFEISRRLIDRTNANFLVWPPCVEVQRCSGCCNNRNVQCRPTQVQLRPVQVRKIEIVRKKPIFKKATVTLEDHLACKCETVAAARPVT

In one assay the target is laminin-521 (human, UniProt O15230 36-3695; P55268 33-1798; P11047 34-1609). The assay is described as follows: SPR.
Assay [1] addresses recombinant laminin α3_(2928-3150) protein (human) (UniProt Q16787). The assay is described as follows: SPR.
In assay [2] the target is recombinant human syndecan-2 (human, UniProt P34741 19-144). The assay is described as follows: ELISA. (In general: An ELISA detects its analyte on a solid surface through an enzyme-linked reagent.)
recombinant human syndecan-2, sequence (P34741 19-144): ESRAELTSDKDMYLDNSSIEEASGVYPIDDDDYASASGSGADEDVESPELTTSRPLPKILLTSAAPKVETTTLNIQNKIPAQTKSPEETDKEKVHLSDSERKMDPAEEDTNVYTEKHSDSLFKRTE
The target in assay [3] is T1, recombinant human syndecan-1. Description: ELISA.
Assay [4] has as its target T2, recombinant human syndecan-4. The assay is described as follows: ELISA.
Assay [5] addresses B2. Description: ELISA.
In assay [6] the target is fibroblast growth factor (FGF)-2 (human, UniProt P09038 143-288). Description: ELISA.
fibroblast growth factor (FGF)-2, sequence (P09038 143-288): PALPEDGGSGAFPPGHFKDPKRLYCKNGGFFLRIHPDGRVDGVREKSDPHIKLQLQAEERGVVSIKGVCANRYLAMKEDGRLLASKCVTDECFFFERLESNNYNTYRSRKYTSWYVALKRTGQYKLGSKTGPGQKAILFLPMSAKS
Assay [7] has as its target B1. The assay is described as follows: ELISA.
A further assay deals with laminin-411 (human, UniProt Q16363 25-1823; P07942 22-1786; P11047 34-1609). The assay is described as follows: ELISA.
The next assay deals with laminin-421 (human, UniProt Q16363 25-1823; P55268 33-1798; P11047 34-1609). Description: ELISA.
Assay [8] concerns the target T4, laminin-111 (human, UniProt P25391 18-3075; P07942 22-1786; P11047 34-1609). Description: ELISA.
Assay [9] deals with T5, laminin-211 (human, UniProt P24043 23-3122; P07942 22-1786; P11047 34-1609). Description: ELISA.
Assay [10] concerns the target T3, recombinant laminin α3_(2928-3150) …. The assay is described as follows: ELISA.
The target in assay [11] is T4, laminin-111. Description: ELISA. The source holds these as a separate data set.
The target of assay [12] is T5, laminin-211. The assay is described as follows: ELISA. This is another data set of the same source.
For assay [13], the target named is T3, recombinant laminin α3_(2928-3150) …. The assay is described as follows: SPR. In general terms: Surface plasmon resonance follows binding to a sensor surface in real time, without labels.

“vascular endothelial growth factor (VEGF)-A165 (ligand)”: the results for the Kd (in the assay with laminin-521; in [1]) were 5.8 nM and 1.2 nM, respectively.

As for RQRSRPGRWHKVSVRWEKNR (peptide, UniProt O15230 3417-3436, looked up) [laminin-derived peptide α5_(3417-3436)], the binding result in assay [2], in [3], in assay [4], in [5], in assay [6] and in [7] was “binds” throughout.

For B1, binding in the assay with laminin-521 was put at a Kd of 12.9 nM. Further, the binding result (with laminin-411; with laminin-421; with laminin-111 [8]; in the assay with laminin-211 [9]; in [10]) was “binds” throughout.

For the molecule B2, the results for the Kd (in the assay with laminin-521; in [13]) were 24.2 nM and 10.2 nM, respectively. In addition, the binding result with laminin-411, with laminin-421, with laminin-111 [11] and with laminin-211 [12] was “binds” each time.

On to PPFLMLLKGSTRFNKTKTFR (peptide, UniProt Q16787 2932-2951, looked up) [laminin-derived peptide α3_(2932-2951)], for which the binding result in assay [6] is “binds”.

With TPGLGPRGLQATARKASRRSRQPARHPACML (peptide, UniProt O15230 3300-3330, looked up) [laminin-derived peptide α5_(3300-3330)], the binding result in [2], in assay [3], in assay [4] and in [7] was “binds” throughout.

Take RLVFALGTDGKKLRIKSKEKCNDGK (peptide, UniProt Q16787 3043-3067, looked up) [laminin-derived peptide α3_(3043-3067)]: the binding result in [2], in assay [3], in assay [4], in assay [5], in [6] and in assay [7] was “binds” throughout.

For TLPDVGLELEVR (peptide, UniProt O15230 3539-3550, looked up) [laminin-derived peptide α5_(3539-3550)], the binding result in assay [5], in assay [6] and in assay [7] was “binds” each time.
